# Test results taken from US20090011988A1 (Genentech, published 2009).
# Positions of bridges follow the written chain, without caps; N, C: chain ends. No end group written: not given here.
# T1: human IGFBP-1 (human, UniProt P08833 26-259)
# T1 sequence (looked up): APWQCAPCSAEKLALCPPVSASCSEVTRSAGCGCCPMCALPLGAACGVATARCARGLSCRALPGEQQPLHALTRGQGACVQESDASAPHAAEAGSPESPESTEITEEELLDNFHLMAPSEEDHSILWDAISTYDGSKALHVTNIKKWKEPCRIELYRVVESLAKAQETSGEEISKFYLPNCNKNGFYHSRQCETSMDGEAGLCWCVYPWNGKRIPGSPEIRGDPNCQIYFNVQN
# How the values were obtained:
# [1] = biological target: T2, recombinant human IGFBP-3 (human, UniProt P17936 28-291); assay: phage ELISA (IGF-blocking phage assay): g8 peptide-phage at a 50-fold dilution on an IGFBP-3-coated plate, without and with IGF-1; OD492
# T2 sequence (P17936 28-291 limits assumed): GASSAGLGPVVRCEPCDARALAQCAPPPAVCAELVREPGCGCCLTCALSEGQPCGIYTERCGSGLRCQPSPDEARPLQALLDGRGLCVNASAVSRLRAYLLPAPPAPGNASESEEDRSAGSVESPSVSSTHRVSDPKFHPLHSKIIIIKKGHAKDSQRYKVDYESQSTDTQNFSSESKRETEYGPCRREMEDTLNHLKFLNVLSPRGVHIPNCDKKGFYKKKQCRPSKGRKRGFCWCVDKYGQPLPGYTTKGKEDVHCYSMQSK
# Experimental: (§1) The plates were then washed ten times, as above, and a solution of rabbit anti-phage antibody mixed with a goat-anti-rabbit conjugate of horseradish peroxidase was added. After an incubation of 1 hour at room temperature, the plates were developed with a chromogenic substrate, o-phenylenediamine (Sigma). The reaction was stopped with addition of ½ volume of 2.5 M H₂SO₄. Optical density at 490 nm was measured on a spectrophotometric plate reader.
# In each case, the phagemid clone was grown from a single colony overnight at 37° C. in a culture volume of 5 ml. The phage particles were precipitated and resuspended in 0.5 ml of PBS buffer.
# [2] = biological target: T2, recombinant human IGFBP-3; assay: phage ELISA (IGF-blocking phage assay): titration of g8 peptide-phage on an IGFBP-3-coated plate in the presence of 100 nM IGF-1; OD492
# Experimental: as §1
# [3] = biological target: T2, recombinant human IGFBP-3; assay: phage ELISA: titration of g8 peptide-phage on an IGFBP-3-coated plate without IGF-1; OD492
# Experimental: as §1
# human IGFBP-1 [4] = biological target: T1, human IGFBP-1; assay: BIAcore kinetics, IGFBP-1 coupled to chip
# Experimental: For each dilution of peptides, a global fit of the sensorgram data was performed using a 1:1 Langmuir binding model.
# [5] = biological target: T2, recombinant human IGFBP-3; assay: BIAcore competition, IGFBP-3 to immobilized IGF-2
# Experimental: IGF-2 was immobilized on a dextran chip for inhibition assays using a BIACORE™ 2000 surface-plasmon-resonance device (BIAcore, Inc., Piscataway, N.J.) to measure free binding protein. IGF-2 was biotinylated as described above, and injected over a chip to which streptavidin had been coupled (BIAcore, Inc.) to give approximately 1500 RU of immobilized IGF-2. […] After incubation for >1 hour at room temperature, an aliquot of […] was injected at a flow rate of […] over the IGF-2 chip.
# [6] = biological target: T2, recombinant human IGFBP-3; assay: BIAcore competition, IGFBP-3 to immobilized IGF-1
# Experimental: IGF-1 was immobilized on a dextran chip for inhibition assays using a BIACORE™ 2000 surface-plasmon-resonance device (BIAcore, Inc., Piscataway, N.J.) to measure free binding protein. IGF-1 was biotinylated as described above, and injected over a chip to which streptavidin had been coupled (BIAcore, Inc.) to give 400 to 800 RU (response units) of immobilized IGF-1. […] After incubation for >1 hour at room temperature, an aliquot of 20:L was injected at a flow rate of 20:L/min over the IGF-1 chip. […]
# [7] = biological target: T2, recombinant human IGFBP-3; assay: phage ELISA on IGFBP-3 plate, competitor IGF-1
# human IGFBP-1 [8] = biological target: T1, human IGFBP-1; assay: BIAcore inhibition assay
# Experimental: Peptides were assayed in a BIAcore™ assay as described in WO 98/45427, supra.
# [9] = biological target: T2, recombinant human IGFBP-3; assay: BIAcore competition, IGFBP-3 to IGF-1
# Experimental: IGF-1 was immobilized on a dextran chip for inhibition assays using a BIACORE™ 2000 surface-plasmon-resonance device (BIAcore, Inc., Piscataway, N.J.) to measure free binding protein. IGF-1 was biotinylated as described above, and injected over a chip to which streptavidin had been coupled (BIAcore, Inc.) to give 400 to 800 RU (response units) of immobilized IGF-1. […] After incubation for >1 hour at room temperature, an aliquot of 20:L was injected at a flow rate of 20:L/min over the IGF-1 chip.
# human IGFBP-1 [10] = biological target: T1, human IGFBP-1; assay: BIAcore, IGFBP-1 coupled to chip
binder,measurement,setting,value
"ETVANCDCYMDLCLCYGSDR (not fully specified (bridges); cysteine pairing not given here; also: displayed on phage as g8p fusion, whole phage particle in the assay; also called peptide-phage clone 4D3.9 (g8 display)) [4D3.9]",binding result,[1],binds
"SGTACYGGPEWWCCSLAGSP (peptide, not shown: large carriers, not fully specified (bridges); also: displayed on M13 g8p phage, disulfide pairing of the three Cys not given here, polyvalent display on M13 phage) [peptide-phage clone 4A3.1 (g8 display)]",binding result,[2],binds
"DMGVCADGPWMYVCEWTE (peptide, not shown: large carriers, polyvalent display on M13 phage) [peptide-phage clone 4B3.4 (g8 display)]",binding result,[2],binds
"RVGAYISCSETECWVEDLLD (peptide, not shown: large carriers, not fully specified (bridges); cysteine pairing not given here; also: polyvalent display on M13 phage, fused via linker to g8p, polyvalent display on M13 phage) [peptide-phage clone 4D3.4 (g8 display)]",binding result,[3],binds
"ELDGWVCIKVGEQNLCYLAE (peptide, not shown: large carriers, not fully specified (bridges); cysteine pairing not given here; also: polyvalent display on M13 phage, fused via linker to g8p, polyvalent display on M13 phage) [peptide-phage clone 4C3.2 (g8 display)]",binding result,[1],binds
EARVCRAGPLQWLCEKYF-NH2 (disulfide 5-14; N-terminus assumed; SMILES CC(C)C[C@@H]1NC(=O)[C@H](Cc2c[nH]c3ccccc23)NC(=O)[C@H](CCC(N)=O)NC(=O)[C@H](CC(C)C)NC(=O)[C@@H]2CCCN2C(=O)CNC(=O)[C@H](C)NC(=O)[C@H](CCCNC(=N)N)NC(=O)[C@@H](NC(=O)[C@@H](NC(=O)[C@H](CCCNC(=N)N)NC(=O)[C@H](C)NC(=O)[C@@H](N)CCC(=O)O)C(C)C)CSSC[C@@H](C(=O)N[C@@H](CCC(=O)O)C(=O)N[C@@H](CCCCN)C(=O)N[C@@H](Cc2ccc(O)cc2)C(=O)N[C@@H](Cc2ccccc2)C(N)=O)NC1=O) [BP1-20],Kd,human IGFBP-1 [4],33 nM
"SEVGCRAGPLQWLCEKYFSTY-NH2 (disulfide 5-14; N-terminus assumed; SMILES CC(C)C[C@@H]1NC(=O)[C@H](Cc2c[nH]c3ccccc23)NC(=O)[C@H](CCC(N)=O)NC(=O)[C@H](CC(C)C)NC(=O)[C@@H]2CCCN2C(=O)CNC(=O)[C@H](C)NC(=O)[C@H](CCCNC(=N)N)NC(=O)[C@@H](NC(=O)CNC(=O)[C@@H](NC(=O)[C@H](CCC(=O)O)NC(=O)[C@@H](N)CO)C(C)C)CSSC[C@@H](C(=O)N[C@@H](CCC(=O)O)C(=O)N[C@@H](CCCCN)C(=O)N[C@@H](Cc2ccc(O)cc2)C(=O)N[C@@H](Cc2ccccc2)C(=O)N[C@@H](CO)C(=O)N[C@H](C(=O)N[C@@H](Cc2ccc(O)cc2)C(N)=O)[C@@H](C)O)NC1=O, also called Y135C) [BP1-21A]",Kd,human IGFBP-1 [4],41 nM
VCWPVAEWYLCN (disulfide 2-11) [BP3-17],IC50,[5],5100 nM
same,IC50,[6],9000 nM
"SGGAIYWPVEQFIAFMAVGK (peptide, not shown: large carriers, polyvalent display on M13 phage) [peptide-phage clone 23A3.3 (g8 display)]",% inhibition of phage binding by 100 nM IGF-1,[7],~20%
"SGGAIYMPVEQFIAFMAVGK (peptide, not shown: large carriers, polyvalent display on M13 phage) [peptide-phage clone 23A3.5 (g8 display)]",% inhibition of phage binding by 100 nM IGF-1,[7],~20%
"Ac-PLEWLAEKYEG (linker 3-10 via 1,5‑diaminopentane) [(i+7)C]","fold potency reduction, IC50 (BP1-01)/IC50 (mut)",human IGFBP-1 [8],20
"Ac-RPLEWLAEKYFE (linker 4-12 via 1,5‑diaminopentane) [(i+8)B]","fold potency reduction, IC50 (BP1-01)/IC50 (mut)",human IGFBP-1 [8],7.7
SEEVCWPVAEWYLCNMWG (disulfide 5-14) [BP3-01-ox],IC50,[9],2000 nM
same,IC50,[5],920 nM
same,IC50,[6],2000 nM
SEEVCWPVAEWYLCN (disulfide 5-14) [BP3-15],IC50,[9],720 nM
same,IC50,[5],780 nM
same,IC50,[6],750 nM
"Ac-RAGPLEWLAEKYEG (linker 6-13 via 1,5‑diaminopentane) [(i+7)D]","fold potency reduction, IC50 (BP1-01)/IC50 (mut)",human IGFBP-1 [8],7.7
"Ac-RAGPLEWLAEKYFE (linker 6-14 via 1,5‑diaminopentane) [(i+8)C]","fold potency reduction, IC50 (BP1-01)/IC50 (mut)",human IGFBP-1 [8],5.9
"SEEVCWPVAEWYLCNMWGR (peptide, not shown: large carriers, not fully specified (bridges); cysteine pairing not given here; also: polyvalent display on M13 phage, fused via linker to g8p, polyvalent display on M13 phage) [peptide-phage clone 4D3.3 (g8 display)]",binding result,[2],binds
SEVGCRAGPLQWLCEKYFG (disulfide 5-14) [BP1-02],half-life for peptide dissociation,human IGFBP-1 [10],~28 s
same,koff,human IGFBP-1 [10],0.0503 s⁻¹
same,kon,human IGFBP-1 [10],230000 M⁻¹ s⁻¹
same,Kd,human IGFBP-1 [4],210 nM
"VAWEVCWDRHDQGYICTTDS (peptide, not shown: large carriers, polyvalent display on M13 phage) [peptide-phage clone 4D3.11 (g8 display)]",% inhibition of phage binding by 100 nM IGF-1,[7],5%
"GQQSCRAGPLQWLCEKYFSTY (disulfide 5-14, also called Y0791A) [BP1-40]",Kd,human IGFBP-1 [4],27 nM
"Ac-CRAGPLQELCEKYAE (disulfide 1-10 (inferred); linker 8-15 via 1,5‑diaminopentane) [(i+7)A]","fold potency reduction, IC50 (BP1-01)/IC50 (mut)",human IGFBP-1 [8],40
"WFKTVCYEWEDEVQCYTLEE (peptide, not shown: large carriers, not fully specified (bridges); cysteine pairing not given here; also: polyvalent display on M13 phage, fused via linker to g8p, polyvalent display on M13 phage) [peptide-phage clone 4D3.5 (g8 display)]",binding result,[3],binds
"SEEVCWPVAEWYLCNILGP (not fully specified (bridges); cysteine pairing not given here; also: displayed on phage as g8p fusion, whole phage particle in the assay; also called peptide-phage clone 4D3.8 (g8 display)) [4D3.8]",binding result,[1],binds
"AEWAECWIAGDQLLCVGKDN (not fully specified (bridges); cysteine pairing not given here; also: displayed on phage as g8p fusion, whole phage particle in the assay; also called peptide-phage clone 4D3.12 (g8 display)) [4D3.12]",binding result,[1],binds
